Results taken from the nanobody polyreactivity screen of Harvey et al. (2022).

Test: yeast display, Sf9 membrane polyspecificity reagent, FACS + sequencing; frameworks hold sequencing errors
Method in brief: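 Nanobodies came from a synthetic yeast display library in Saccharomyces cerevisiae BJ5465, induced with galactose for 36–48 hours and stained for 1 hour at 4 °C with 10% biotinylated, detergent-solubilized Sf9 membrane reagent. Cells were enriched on streptavidin microbeads and then FACS-sorted, with low and high (top ~1%) gates set on anti-HA fluorescence for expression and streptavidin fluorescence for reagent binding. Each polyreactivity label reflects the gate a clone came from. Genes were amplified by colony PCR, sequenced by MiSeq 2 × 250 and filtered by CDR length.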

| Sequence | polyreactivity (PSR sort gate) |
| --- | --- |
| QVQLVESGGGLVQAGGRLRISCAASGSIFKGYARGWSRQAPGKERELVAAISGSGTSTYYADSVKGRFTISRDNAKNTVYLQMNSLKPEDTAVYYCATGWYTVFSSRMYSWGQGTQVTVSS | high polyreactivity |
| QVQLVESGGGLVQAGGSLRLSCAASGGIFTSYDMGWYRQAPAKEREFVAGISDSGGSTYYADSVKGRFTISRDNAKNTVYLQMNSLKPEDTAVYYFAADAWYVWEYWWQTEDDYWGQGTEVTVSS | high polyreactivity |
| QVQLVESGGGLVQAGGSLRLSCAASGFIFPKNAMGWYRQAPGKERELVAAISRSSGNTYYADSVKGRFTISRDNAKNTVYLQMNSLKPEDTAVYYCAASYWPYRGPVGGSKMYYWGQGTQVTVSS | high polyreactivity |
| QVQLVESGGGLVQAGGSLRLTCAASGRIFYQYAMGWYRQAPGKEMDLVASITTSGGNTYYADSVKGRFTISRDNAKNTVYLQMNSLKPEDTAVYYCAARFNWRQWLYEYWGQGTQVTVSS | low polyreactivity |
| QVQLVESGGGLVQAGGSLRLSCAASGIIFVIYAMVWYRQAPGKERELVAAISSSGGSTYYADSVKGRFTISRDNAKNTVYLLMNSLKPEDTAVYYCAVALSHYFGGYGYWGQGTQLTVSS | low polyreactivity |
| QFQLVESGGGLVQAGGSLRLSCAASGSIFSYNAMGWYIQAPGKERELVASITSGGRTYYADSVKGRFTISRDNAKNTVYLQMYSLKPEDTAVYYCAAYQTGLHGFYSWGQGTQVTVSS | high polyreactivity |
| QVQLVESGGGLVQAGGSLRLSCAASGRIFAHYEMGWYRQAPGKERELVAAISSGGSTYYADSVKGRFTISRDNAKNTVYLQMNSLKPEDTAVYYCNKRPVRRKYDYWGQGTQVTVSS | low polyreactivity |
| QVQLVESGGGLVQAGGSLRLSCAASGSTFRRNTMGWYREAPGKEREFVAALSRRGGSTYYADSVKGRFTISRDNAKNTVYFQMNRLKPEDTGVYYCAAPGLSRLYNVYYWPYDYWGQGTQVTVSS | high polyreactivity |
| QVQLVESGGGLVQAGGSLRLSCAASGSIFRQYAMGWYRQAPPKDRELVAAISSVGRTYYADSVKGRFTISRDNAKNTVYLQMNSLKPEDTAVYYCAARPYKFARYDYWGQGTQVTVSS | high polyreactivity |
| QVQLVESGGGLVQAGGSLRLSCAASGIIFGKYAMGGYRQAPGKERELVAAISSSGGRTYYADSGKGRFTISRDNAKNNVYLQMNSLKPEDTAVYYCAAVPGPGYYHYGYWGQGTQVTVSS | high polyreactivity |
| QVQLVESGGGLVQAGGSLRLSCAASGSIFYYYVMGWYRQAPGKERELVAAISSGGGTNYADSVKGRFTISRDNAKNTVYLQLNRLKPEDTAVYYCAKASAYGLANDYDYWGQGTLVTVSS | low polyreactivity |
| QVQLGESGGGLVQAGGSLRLSCAASGSTFPVYAMGWSRQAPGKEWELVAAISSGGTTNYADSVKGRFTISRDNAKNTVYLQRNSLKPEDTAVYYCAADDWYYHFLVSSSAFDYWGQGTQVTVSS | high polyreactivity |
| QVQLVESGGGLVQAGGSLRLTCAASGSIFSHYAMGWYRQATGKERELVAAITYGGGSTYYADSVKGRFTISRDIAMNTVYLQMNSLKPDDTAVYYCAKEFKYWGYPYDYWGQGTQVTVSS | low polyreactivity |
| QVQLVESGGALVQAGGSLRLSCAASGSIFTGYAMGWYRQAPGKERELVAAISSRGGSTYYADSVKGRFTISRDNATNTVYLQMNSLKPEDTAVYYCNAVYSGRFLRRDYWGQGTQVTVSS | high polyreactivity |
| QVQLVESGGGLVQAGGSLRLSCAASGSIFVANAMGWYRQAPGKERELVAAISASGVTTYYADSVKGRFTISRDNAKNTVYLQMNSLKPEDTAVYYCNADYGSDDDVVRYDYWGQGTQVTVSS | low polyreactivity |
| QVQLVESGGGLVQAGGSLRLSCAASGIIFGKNAMGWYRQAPGKERELVAAISSSGGSTYYADSVKGRFTISRDNAKNTVYLQMNSLKPEDTAVYYCATERGSRRSGSRMDYWGQGTQVTVSS | high polyreactivity |
| QGQLVESGGGLVQAGGSLRLSCAASGSIFRAYAMGWNRQAPGKERELVAAISWGGGSTSYADSVKGRFTISRDNAMNTVYLQMNSLKPEDTAVYYCAAELYLSRLRYWYDYWGHGTQVTVSS | high polyreactivity |
| QVQHVESGGGLVQAGGSLRLICAASGFSFILYAMGWYRQARGKERELVAAISSSGGRRYYADSVKGRFTISRDNANNTVYIQMNSLKPEDTAVYYCNAVRTVNDYHYDYWGQGTQVTVSS | high polyreactivity |
| QVQLVESGGGLVQAGGSLRLSCAASGFTFRGYVMGWYRQAPGKERELVAAITNIGTSTYYADSVKGRFTISRDNAKNTVYLQMNSLKPEDTAVYYCAARLRTKFYYWGQGTLVTVSS | low polyreactivity |
| QVQLVESGGGLVQAGGSLRLSCAASGSIFKTYAMGWYRQAPGKERELVAAISRSTSRTYYADSVKGRFTISRDNAKNTVYLQMNSLKPEDTAVYYCAAHRSTRGTKLYYWGQGTQVTVSS | high polyreactivity |
| QVQLVESGGGLVQAGGSLRLSCAASGSTFRYNAMGWYRQAPGKERELVAAISRIGGTTYADSVKGRFTISRDNAKNTVYLQMNSLKPEDTAVYYCARANWGYYGPEYGYWGQGTQVTVSS | low polyreactivity |
| QVQLVESGGGLVQAVGSLRLSCAASGGIITSSAMGWYRLAPGKEWELVAAITGIGGRTYYADSVKGRFTISRDNAKNTVYLQMNSLKPEDTAVYYCKAAYTYVTAWYYYCGQGTQVTVSS | high polyreactivity |

| Sequence | polyreactivity (PSR sort gate) |
| --- | --- |
| QVQLVESGGGLVQAGGSLRLSCAASGSIFIAYTMGWYRQAPGKERELVAAISQSGGGTHYADSVKGRFTISRDNAKNTVYLQMNSLKPEDTAVYYCAADRPATSDYTGYDYWGQGTQVTVSS | low polyreactivity |
| QVQLVESGGGLVQAGGSLRLSCAASGRIFYSNAMGWYRQAPGKERELVAVIRRTGSTYYAASVKGRFTISRDNAKNTVYLQMISQIPEDTAVYYCATSIPYGRGGNRYVYWGQGTQVTVSS | high polyreactivity |
| QVQLVESRGGLVQAGGSLRLSCAASGFIFWRYAMGWYRQAPGKERELVASITYSGGRTYYADSVKGRFTISRDNAKNTVYLQMNILKPEDTAVYYCATARYRYHYYSWGQGTQVTVSS | high polyreactivity |
| QVQLVESGVGLVQAGGSLRLICAASGRIFANYAMGWYRQAPGKERELVAAITGSGGTTYYADSVKGRFTISRDNAKNSVYLEMNSLKPEDTAVYYCATPPPVVWQRWYREYDYWGQGTQVTVSS | low polyreactivity |
| QVQLVESGGGLVQAGGSLRLSCAASGRIFWSNAMGWYRQAPGKERELVATISSGGRTYYADSVKGRFTISRDNAKNTVYLQMNSLKPEDTAVYYCAAVTFWFWPGMDYWGQGTQVTVSS | low polyreactivity |
| QVQLVESGGGLVQAGGSLRLSCAASGGIFSYYAMGWYIQAPGKERELVAAISGSGGRTYYADSVKGRFTLSRDNAKNTVYLQMNSLKPEDTAVYYCAAYPVNRVDYRYDYWGQGTQVTVSS | high polyreactivity |
| QVQLVESGGGLVQAGGSLRLSCAASGLIFQYYVMGWYRQAPGKERQLVAAISARGGGTYYADSVKGRFTISRDNAKNTVYLQMNSLKPEDTAVYYCAADPVYAGPGYDYWGQGTQVTVSS | high polyreactivity |
| QVQLVESGGGLVQARGSLRLSCAASGIIFLVNDMGWYRQAPGKVRELVAAITYSGDGTFYADSVKGRFTISRDNAKNTVYLQMNSLKPEDTAVYYCAADLPESPESYYHTDDYWGQGTQGTVSS | low polyreactivity |
| QVQLVESGGGLVQAGGSLRLSCAASGFTFYRNAMGWYRQAPGKERELVAGISKRGGSTYYADSVKGRFTISRDNAKNTVYLLMNSLKPEDTAVYYCARGGYPGSAEYDYWGQGTQVTVSS | high polyreactivity |
| QVQLVESGGGLVQAGGSLRLSCAASGRIFDSYAMGWYRQAPGKERELVATISWDSASTYYADSVKGRFTISRDYAKNTVYLQMNSLKPEDTAVYYCAAGGSSSWAFNYWGQGTQVTVSS | low polyreactivity |
| QVQLVESGGGLVQAGGSLRLSCAASGRTFGWYAMGWYRQAPGKERELVAAINNSGDITYYADSVKGRFTISRDNAKNTVYVQMNSLKPEDTAVYYCAATAGYYGYPSEYDYWGQGTQVTVSS | low polyreactivity |
| QVQLVESGGGLVQAGGSLRLSCAASGSIFRRYAMGWYRPAPGKERELVAAITNRGGTTYYADSVKGRFTISRDNAKNTVYLQMNSLNPEDTAVYYCATALWVRYYGQGGYIRRYDYWGQGTQVTVSS | high polyreactivity |
| QVQLEESGGGLVQAGGSLRLSCAASGSIFDYYAMGWYRQAPGTERELVATITSGVSTYYADSVKGRFTISRDNAKNTVYLQMNSLKPEETAVYYCARDYAKSQDVYKYDYWGQGTQVTVSS | low polyreactivity |
| QVQLVESGGGLVQAGGSLRLSCAASGSTFYLYAMGWYRQAPGKEREFVARISASGGNTYYADSVKGRFTISRDNAKNTVYLQMNSLKPEDTAVYSCAARVRGRNASDYDYYYWGQGTQVTVSS | high polyreactivity |
| QVQLVESGGGLVQAGGSLRLSCAASGFTFRKNAMGWYRQAPGKERELVAAISSGGGRTYYADSVKGRFTISRDNAKNTVYLQMNSLKPEDTAVYYCNAVRVVRLTFQDWISMDYWGQGTQVTVSS | high polyreactivity |
| QVQLVDSGGGLVQAGGSLRLSCAASGLTFSTYAKGWYRQAPGTERELVAVIRRTGSTYYADSVKGRFTISRDNAMNTVYLHMNGLKPEDNAVYYFATARRHVSGYDFWGQCTQVTVSS | high polyreactivity |
| QVQLVESGGGLVQAGGSLRLSSAASGFTFVSYAMGWYRQAPGKERELVASISKRGGTTYYADSVKGRFTISRDNAKKTVFLQMNSLKPDDTAVYYCNARDTRRYVTYDSGYDYWGQGTQVTVSS | high polyreactivity |
| QDQHVESGGGLVQAGGSLRLSCAASGSTLLYYVMGWYRQAPGKERELVAAITGTGGRTYYADSVKGRFTISRDNAKNTVYLQMNSLKPEDTAVYYCAREWRTRIYYYWGQGTQVTVSS | low polyreactivity |
| QVQLVESVGGLVQAGGSLRLSCAASGFIFSGNTMGWYRQAPGKERELVAAITSGGGRTYYADSVKGRFTISRDNAKNTVYLQMNSLKPEDTAVYYCNTAFVYEYDYWGQGTQVTVSS | high polyreactivity |
| QVQHVESGGGLVQAGGSLRLSCAASGFTFYTYAMGWYRPAPGKERELVAAITSSGGSTYYADSVKGRFTISRDNAKNTVYLQMNSLKPEDTAVYYCNDRVRTQQRWVDYWGQGTQVTVSS | high polyreactivity |
| QVQLVESGGGLVQAGGSLRLSCAASGFIFDAYAMGWYRPAPGKEREFVAGISIGGRTNYADSVKGRFTISRDNAKNTVYLQMNSLKPEDSAVYYCAARNYRYYYGSYFRGPITNYEYWGQGTQVTVSS | low polyreactivity |
